From the RNAGym collection of RNA variant scans (doi:10.1021/acssynbio.7b00057)

B1: Pistol ribozyme (parent)
chain: GGGUCGUUGUUCCAUAAUCGCGUGGAUAUGGCACGCAAGUUUCUACCGGGCACCGUAAAUGUCCGACUGGAGCCGUUCGGGCGGCUAUAAACAGACCUCAGGCCCGAAGCGUGGCGGCACCUGCCGCCGGUGGUAAAAAAGAUCGGAAGAGCACACGUCU

Variants of: B1
Test: aptazyme ON/OFF ratio, guanine; higher = stronger switching; co-transcriptional cleavage with and without guanine

Going from GGGUCGGCCUUCGAUAAUCGCGUGGAUAUGGCACGCAAGUUUCUACCGGGCACCGUAAAUGUCCGACUGGAGCCGUUCGGGCGGCUAUAAACAGACCUCAGGCCCGAAGCGUGGCGGCACCUGCCGCCGGUGGUAAAAAAGAUCGGAAGAGCACACGUCU to GGGUCGGCCAUGCAUAAUCGCGUGGAUAUGGCACGCAAGUUUCUACCGGGCACCGUAAAUGUCCGACUGGAGCCGUUCGGGCGGCUAUAAACAGACCUCAGGCCCGAAGCGUGGCGGCACCUGCCGCCGGUGGUAAAAAAGAUCGGAAGAGCACACGUCU, the “aptazyme ON/OFF ratio” value rises from 1.05 to 1.25.

Compared with GGGUCGGCCAUACAUAAUCGCGUGGAUAUGGCACGCAAGUUUCUACCGGGCACCGUAAAUGUCCGACUGGAGCCGUUCGGGCGGCUAUAAACAGACCUCAGGCCCGAAGCGUGGCGGCACCUGCCGCCGGUGGUAAAAAAGAUCGGAAGAGCACACGUCU, GGGUCGGCCUUACAUAAUCGCGUGGAUAUGGCACGCAAGUUUCUACCGGGCACCGUAAAUGUCCGACUGGAGCCGUUCGGGCGGCUAUAAACAGACCUCAGGCCCGAAGCGUGGCGGCACCUGCCGCCGGUGGUAAAAAAGAUCGGAAGAGCACACGUCU is higher in “aptazyme ON/OFF ratio” value: 1.09 for the first, 1.12 for the second.

First: GGGUCGGCCUUUCAUAAUCGCGUGGAUAUGGCACGCAAGUUUCUACCGGGCACCGUAAAUGUCCGACUGGAGCCGUUCGGGCGGCUAUAAACAGACCUCAGGCCCGAAGCGUGGCGGCACCUGCCGCCGGUGGUAAAAAAGAUCGGAAGAGCACACGUCU
Second: GGGUCGGCCUUGCAUAAUCGCGUGGAUAUGGCACGCAAGUUUCUACCGGGCACCGUAAAUGUCCGACUGGAGCCGUUCGGGCGGCUAUAAACAGACCUCAGGCCCGAAGCGUGGCGGCACCUGCCGCCGGUGGUAAAAAAGAUCGGAAGAGCACACGUCU
The “aptazyme ON/OFF ratio” value of the first is higher: 1.28 for the first, 1.22 for the second.

First: GGGUCGGCAUGAUAUAAUCGCGUGGAUAUGGCACGCAAGUUUCUACCGGGCACCGUAAAUGUCCGACUGGAGCCGUUCGGGCGGCUAUAAACAGACCUCAGGCCCGAAGCGUGGCGGCACCUGCCGCCGGUGGUAAAAAAGAUCGGAAGAGCACACGUCU
Second: GGGUCGGCCUUAUAUAAUCGCGUGGAUAUGGCACGCAAGUUUCUACCGGGCACCGUAAAUGUCCGACUGGAGCCGUUCGGGCGGCUAUAAACAGACCUCAGGCCCGAAGCGUGGCGGCACCUGCCGCCGGUGGUAAAAAAGAUCGGAAGAGCACACGUCU
The “aptazyme ON/OFF ratio” value of the first is lower: 1.12 for the first, 1.16 for the second.

GGGUCGGCCUUAGAUAAUCGCGUGGAUAUGGCACGCAAGUUUCUACCGGGCACCGUAAAUGUCCGACUGGAGCCGUUCGGGCGGCUAUAAACAGACCUCAGGCCCGAAGCGUGGCGGCACCUGCCGCCGGUGGUAAAAAAGAUCGGAAGAGCACACGUCU and GGGUCGGCCUUAAAUAAUCGCGUGGAUAUGGCACGCAAGUUUCUACCGGGCACCGUAAAUGUCCGACUGGAGCCGUUCGGGCGGCUAUAAACAGACCUCAGGCCCGAAGCGUGGCGGCACCUGCCGCCGGUGGUAAAAAAGAUCGGAAGAGCACACGUCU are the same in “aptazyme ON/OFF ratio” value: 1.15 for the first, 1.15 for the second.

First: GGGUCGGCCUUGAAUAAUCGCGUGGAUAUGGCACGCAAGUUUCUACCGGGCACCGUAAAUGUCCGACUGGAGCCGUUCGGGCGGCUAUAAACAGACCUCAGGCCCGAAGCGUGGCGGCACCUGCCGCCGGUGGUAAAAAAGAUCGGAAGAGCACACGUCU
Second: GGGUCGGCCUUGGAUAAUCGCGUGGAUAUGGCACGCAAGUUUCUACCGGGCACCGUAAAUGUCCGACUGGAGCCGUUCGGGCGGCUAUAAACAGACCUCAGGCCCGAAGCGUGGCGGCACCUGCCGCCGGUGGUAAAAAAGAUCGGAAGAGCACACGUCU
The “aptazyme ON/OFF ratio” value of the first is higher: 1.13 for the first, 1.12 for the second.

First: GGGUCGGCCUUGUAUAAUCGCGUGGAUAUGGCACGCAAGUUUCUACCGGGCACCGUAAAUGUCCGACUGGAGCCGUUCGGGCGGCUAUAAACAGACCUCAGGCCCGAAGCGUGGCGGCACCUGCCGCCGGUGGUAAAAAAGAUCGGAAGAGCACACGUCU
Second: GGGUCGGCAUGUCAUAAUCGCGUGGAUAUGGCACGCAAGUUUCUACCGGGCACCGUAAAUGUCCGACUGGAGCCGUUCGGGCGGCUAUAAACAGACCUCAGGCCCGAAGCGUGGCGGCACCUGCCGCCGGUGGUAAAAAAGAUCGGAAGAGCACACGUCU
The “aptazyme ON/OFF ratio” value of the first is lower: 1.09 for the first, 1.3 for the second.

First: GGGUCGGCAUGGCAUAAUCGCGUGGAUAUGGCACGCAAGUUUCUACCGGGCACCGUAAAUGUCCGACUGGAGCCGUUCGGGCGGCUAUAAACAGACCUCAGGCCCGAAGCGUGGCGGCACCUGCCGCCGGUGGUAAAAAAGAUCGGAAGAGCACACGUCU
Second: GGGUCGGCCUUCCAUAAUCGCGUGGAUAUGGCACGCAAGUUUCUACCGGGCACCGUAAAUGUCCGACUGGAGCCGUUCGGGCGGCUAUAAACAGACCUCAGGCCCGAAGCGUGGCGGCACCUGCCGCCGGUGGUAAAAAAGAUCGGAAGAGCACACGUCU
The “aptazyme ON/OFF ratio” value of the first is lower: 1.14 for the first, 1.35 for the second.

Compared with GGGUCGGCCAUGAAUAAUCGCGUGGAUAUGGCACGCAAGUUUCUACCGGGCACCGUAAAUGUCCGACUGGAGCCGUUCGGGCGGCUAUAAACAGACCUCAGGCCCGAAGCGUGGCGGCACCUGCCGCCGGUGGUAAAAAAGAUCGGAAGAGCACACGUCU, GGGUCGGCCAUGGAUAAUCGCGUGGAUAUGGCACGCAAGUUUCUACCGGGCACCGUAAAUGUCCGACUGGAGCCGUUCGGGCGGCUAUAAACAGACCUCAGGCCCGAAGCGUGGCGGCACCUGCCGCCGGUGGUAAAAAAGAUCGGAAGAGCACACGUCU is lower in “aptazyme ON/OFF ratio” value: 1.06 for the first, 1.05 for the second.
